In US20240252614A1:

How the values were obtained:
Settings in all cases: remark: other sources report otherwise
[1] = biological target: hMPV A F WT Control (hMPV A), Q6WB98; assay: BLI, 50C stress
[2] = biological target: hMPV043 (hMPV A), Q6WB98; assay: BLI, 50C stress
[3] = biological target: hMPV045 (hMPV A), Q6WB98; assay: BLI, 50C stress
[4] = biological target: hMPV047 (hMPV A), Q6WB98; assay: BLI, 50C stress
[5] = biological target: hMPV050 (hMPV A), Q6WB98; assay: BLI, 50C stress
[6] = biological target: hMPV053 (hMPV A), Q6WB98; assay: BLI, 50C stress
[7] = biological target: hMPV054 (hMPV A), Q6WB98; assay: BLI, 50C stress
[8] = biological target: hMPV058 (hMPV A), Q6WB98; assay: BLI, 50C stress
[9] = biological target: hMPV061 (hMPV A), Q6WB98; assay: BLI, 50C stress
[10] = biological target: hMPV062 (hMPV A), Q6WB98; assay: BLI, 50C stress
[11] = biological target: hMPV063 (hMPV A), Q6WB98; assay: BLI, 50C stress
[12] = biological target: hMPV066 (hMPV A), Q6WB98; assay: BLI, 50C stress
[13] = biological target: hMPV067 (hMPV A), Q6WB98; assay: BLI, 50C stress
[14] = biological target: hMPV068 (hMPV A), Q6WB98; assay: BLI, 50C stress
[15] = biological target: hMPV077 (hMPV A), Q6WB98; assay: BLI, 50C stress
[16] = biological target: hMPV A F WT Control (hMPV A), Q6WB98; assay: BLI, 53C stress
[17] = biological target: hMPV043 (hMPV A), Q6WB98; assay: BLI, 53C stress
[18] = biological target: hMPV044 (hMPV A), Q6WB98; assay: BLI, 53C stress
[19] = biological target: hMPV045 (hMPV A), Q6WB98; assay: BLI, 53C stress
[20] = biological target: hMPV046 (hMPV A), Q6WB98; assay: BLI, 53C stress
[21] = biological target: hMPV047 (hMPV A), Q6WB98; assay: BLI, 53C stress
[22] = biological target: hMPV048 (hMPV A), Q6WB98; assay: BLI, 53C stress
[23] = biological target: hMPV049 (hMPV A), Q6WB98; assay: BLI, 53C stress
[24] = biological target: hMPV050 (hMPV A), Q6WB98; assay: BLI, 53C stress
[25] = biological target: hMPV053 (hMPV A), Q6WB98; assay: BLI, 53C stress
[26] = biological target: hMPV054 (hMPV A), Q6WB98; assay: BLI, 53C stress
[27] = biological target: hMPV055 (hMPV A), Q6WB98; assay: BLI, 53C stress
[28] = biological target: hMPV058 (hMPV A), Q6WB98; assay: BLI, 53C stress
[29] = biological target: hMPV060 (hMPV A), Q6WB98; assay: BLI, 53C stress
[30] = biological target: hMPV061 (hMPV A), Q6WB98; assay: BLI, 53C stress
[31] = biological target: hMPV062 (hMPV A), Q6WB98; assay: BLI, 53C stress
[32] = biological target: hMPV063 (hMPV A), Q6WB98; assay: BLI, 53C stress
[33] = biological target: hMPV066 (hMPV A), Q6WB98; assay: BLI, 53C stress
[34] = biological target: hMPV067 (hMPV A), Q6WB98; assay: BLI, 53C stress
[35] = biological target: hMPV068 (hMPV A), Q6WB98; assay: BLI, 53C stress
[36] = biological target: hMPV069 (hMPV A), Q6WB98; assay: BLI, 53C stress
[37] = biological target: hMPV071 (hMPV A), Q6WB98; assay: BLI, 53C stress
[38] = biological target: hMPV075 (hMPV A), Q6WB98; assay: BLI, 53C stress
[39] = biological target: hMPV077 (hMPV A), Q6WB98; assay: BLI, 53C stress
[40] = biological target: hMPV A F WT Control (hMPV A), Q6WB98; assay: BLI, 53C stress; remark: listed apart in the source
[41] = biological target: hMPV080 (hMPV A), Q6WB98; assay: BLI, 53C stress
[42] = biological target: hMPV A F WT Control (hMPV A), Q6WB98; assay: BLI, 68C stress
[43] = biological target: hMPV080 (hMPV A), Q6WB98; assay: BLI, 68C stress

B1: MPE8 mAb (antibody, V domains shown)
VH: EVQLVESGGGLVKPGGSLRLSCAASGFTFSSYSMNWVRQAPGKGLEWVSSISASSSYSDYADSAKGRFTISRDNAKTSLFLQMNSLRAEDTAIYFCARARATGYSSITPYFDIWGQGTLVTVSS
VL: QSVVTQTPSVSGAPGQRVTISCTGSSSNIGAGYDVHWYQQLPGTAPKLLIYDNNNRPSGVPDRFSASKSGTSASLAITGLQAEDEADYYCQSYDRNLSGVFGTGTKVTVL
With B1 the Response Shift [1] was 0.174 nm, the Response Shift [2] was 0.501 nm and the Response Shift [3] was 0.139 nm. The Response Shift [4] was -0.024 nm, the Response Shift [5] was 0.14 nm and the Response Shift [6] was 0.422 nm. For the same binder, the Response Shift [7] was 0.381 nm, the Response Shift [8] was 0.403 nm and the Response Shift [9] was 0.537 nm. For the same binder, the Response Shift [10] was 0.253 nm, the Response Shift [11] was 0.57 nm and the Response Shift [12] was 0.666 nm. It also gave a Response Shift [13] of 0.571 nm, a Response Shift [14] of 0.194 nm and a Response Shift [15] of 0.472 nm. The Response Shift [16] was -0.017 nm, the Response Shift [17] was 0.01 nm and the Response Shift [18] was 0.534 nm. The Response Shift [19] was -0.025 nm, the Response Shift [20] was -0.012 nm and the Response Shift [21] was -0.051 nm. For the same binder, the Response Shift [22] was -0.056 nm, the Response Shift [23] was -0.065 nm and the Response Shift [24] was -0.014 nm. The Response Shift [25] was -0.032 nm, the Response Shift [26] was -0.064 nm and the Response Shift [27] was -0.078 nm. The Response Shift [28] was -0.05 nm, the Response Shift [29] was -0.06 nm and the Response Shift [30] was -0.059 nm. It also gave a Response Shift [31] of 0.006 nm, a Response Shift [32] of -0.008 nm and a Response Shift [33] of -0.003 nm. It also gave a Response Shift [34] of -0.041 nm, a Response Shift [35] of 0.002 nm and a Response Shift [36] of -0.003 nm. It also gave a Response Shift [37] of -0.039 nm, a Response Shift [38] of -0.069 nm and a Response Shift [39] of -0.041 nm. It also gave a Response Shift [40] of 0.037 nm, a Response Shift [41] of 0.798 nm and a Response Shift [42] of 0.025 nm. For the same binder, the Response Shift [43] was -0.075 nm.
